Measurements as given in publication PMC6078952, “Insights into the structure and dynamics of lysyl oxidase propeptide, a flexible protein with numerous partners” (Scientific Reports, 2018).

T1: Collagen VI (vWF1 domain) (UniProt P12109 20-256)
T1 construct: collagen alpha-1(VI) chain, UniProtKB P12109, residues 20-256 (vWF1 domain); also called Collagen VI alpha 1 chain (vWF1 domain); source: Expressed in the laboratory (PMID 24117177)
T1 sequence (looked up): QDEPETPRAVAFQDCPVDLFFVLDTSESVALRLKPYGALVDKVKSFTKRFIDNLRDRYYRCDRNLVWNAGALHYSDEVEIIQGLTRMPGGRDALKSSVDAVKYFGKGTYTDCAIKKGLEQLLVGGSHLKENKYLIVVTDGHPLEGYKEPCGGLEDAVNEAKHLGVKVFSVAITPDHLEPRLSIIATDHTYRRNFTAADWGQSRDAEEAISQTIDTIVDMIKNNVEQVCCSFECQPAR

T2: Dermatopontin (UniProt Q07507 19-201)
T2 construct: dermatopontin, UniProtKB Q07507; source: bought: Abcam, ab158310
T2 sequence (looked up): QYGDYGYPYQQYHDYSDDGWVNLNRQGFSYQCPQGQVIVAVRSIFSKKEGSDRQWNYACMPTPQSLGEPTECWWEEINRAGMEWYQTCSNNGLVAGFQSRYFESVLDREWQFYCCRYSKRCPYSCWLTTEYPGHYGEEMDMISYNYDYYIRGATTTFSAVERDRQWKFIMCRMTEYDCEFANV

T3: Transglutaminase-2 (TG-2), mutant Cys277Ser (UniProt P21980 1-687, Cys277Ser)
T3 construct: transglutaminase-2, UniProtKB P21980; source: bought: Zedira, T018
T3 sequence (looked up): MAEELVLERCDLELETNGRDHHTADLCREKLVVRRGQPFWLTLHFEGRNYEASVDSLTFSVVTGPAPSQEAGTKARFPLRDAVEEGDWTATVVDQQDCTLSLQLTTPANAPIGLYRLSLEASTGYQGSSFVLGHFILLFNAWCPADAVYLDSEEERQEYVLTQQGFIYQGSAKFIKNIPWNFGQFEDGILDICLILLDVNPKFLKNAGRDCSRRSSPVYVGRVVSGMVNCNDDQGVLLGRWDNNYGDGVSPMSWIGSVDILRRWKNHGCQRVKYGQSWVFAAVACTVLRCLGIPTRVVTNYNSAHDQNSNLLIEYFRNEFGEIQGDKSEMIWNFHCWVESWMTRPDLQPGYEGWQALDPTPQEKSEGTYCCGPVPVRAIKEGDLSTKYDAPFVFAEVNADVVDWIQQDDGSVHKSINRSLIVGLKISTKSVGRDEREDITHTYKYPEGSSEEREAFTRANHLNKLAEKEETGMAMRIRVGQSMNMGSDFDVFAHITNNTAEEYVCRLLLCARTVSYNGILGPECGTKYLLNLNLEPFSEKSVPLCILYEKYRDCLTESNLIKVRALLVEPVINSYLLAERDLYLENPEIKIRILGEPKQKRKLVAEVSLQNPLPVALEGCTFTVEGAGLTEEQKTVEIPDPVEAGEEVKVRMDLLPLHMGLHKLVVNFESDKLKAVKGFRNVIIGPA

T4: Fibromodulin (UniProt P13605 19-376)
T4 construct: proteoglycan; source: bought: Sigma-Aldrich, F6921
T4 sequence (looked up): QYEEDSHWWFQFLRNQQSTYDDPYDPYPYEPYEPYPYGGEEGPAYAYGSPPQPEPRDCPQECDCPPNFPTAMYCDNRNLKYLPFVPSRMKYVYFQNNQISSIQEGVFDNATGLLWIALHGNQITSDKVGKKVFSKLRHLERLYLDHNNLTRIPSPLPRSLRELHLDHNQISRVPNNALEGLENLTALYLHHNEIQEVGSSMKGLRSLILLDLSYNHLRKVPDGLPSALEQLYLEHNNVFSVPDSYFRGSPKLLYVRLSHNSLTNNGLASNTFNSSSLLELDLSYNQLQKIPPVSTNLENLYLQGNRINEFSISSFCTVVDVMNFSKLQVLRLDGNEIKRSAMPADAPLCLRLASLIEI

T5: Lysyl oxidase homolog 2 (LOXL2) (UniProt Q9Y4K0 26-774)
T5 construct: lysyl oxidase homolog 2, UniProtKB Q9Y4K0; also called lysyl oxidase-like 2; source: bought: R&D Systems, 2639-AO
T5 sequence (looked up): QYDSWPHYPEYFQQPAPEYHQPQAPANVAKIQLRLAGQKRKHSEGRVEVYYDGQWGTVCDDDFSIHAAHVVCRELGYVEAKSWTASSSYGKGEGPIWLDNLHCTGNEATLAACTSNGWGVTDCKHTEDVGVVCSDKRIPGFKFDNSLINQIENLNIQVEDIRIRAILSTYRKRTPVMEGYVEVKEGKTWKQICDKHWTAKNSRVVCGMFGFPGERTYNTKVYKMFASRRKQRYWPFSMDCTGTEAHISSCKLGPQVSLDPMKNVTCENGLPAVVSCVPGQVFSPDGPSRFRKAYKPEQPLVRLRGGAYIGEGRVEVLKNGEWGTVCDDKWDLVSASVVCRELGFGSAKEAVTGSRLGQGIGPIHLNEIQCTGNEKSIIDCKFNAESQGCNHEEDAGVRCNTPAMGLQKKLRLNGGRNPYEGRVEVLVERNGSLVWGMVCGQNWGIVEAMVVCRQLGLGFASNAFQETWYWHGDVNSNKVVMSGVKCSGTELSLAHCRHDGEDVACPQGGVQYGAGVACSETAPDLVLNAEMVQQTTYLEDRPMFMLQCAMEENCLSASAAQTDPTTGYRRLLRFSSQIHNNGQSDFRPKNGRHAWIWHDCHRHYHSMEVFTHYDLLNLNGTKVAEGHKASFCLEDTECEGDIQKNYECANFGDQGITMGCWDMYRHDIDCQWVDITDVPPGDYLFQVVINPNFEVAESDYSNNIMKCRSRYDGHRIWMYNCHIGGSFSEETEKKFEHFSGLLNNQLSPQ

T6: Matrix metalloproteinase-2 (MMP-2) (UniProt P08253 30-660)
T6 construct: matrix metalloproteinase-2, UniProtKB P08253, residues 30-660; source: bought: R&D Systems, 902-MPN
T6 sequence (looked up): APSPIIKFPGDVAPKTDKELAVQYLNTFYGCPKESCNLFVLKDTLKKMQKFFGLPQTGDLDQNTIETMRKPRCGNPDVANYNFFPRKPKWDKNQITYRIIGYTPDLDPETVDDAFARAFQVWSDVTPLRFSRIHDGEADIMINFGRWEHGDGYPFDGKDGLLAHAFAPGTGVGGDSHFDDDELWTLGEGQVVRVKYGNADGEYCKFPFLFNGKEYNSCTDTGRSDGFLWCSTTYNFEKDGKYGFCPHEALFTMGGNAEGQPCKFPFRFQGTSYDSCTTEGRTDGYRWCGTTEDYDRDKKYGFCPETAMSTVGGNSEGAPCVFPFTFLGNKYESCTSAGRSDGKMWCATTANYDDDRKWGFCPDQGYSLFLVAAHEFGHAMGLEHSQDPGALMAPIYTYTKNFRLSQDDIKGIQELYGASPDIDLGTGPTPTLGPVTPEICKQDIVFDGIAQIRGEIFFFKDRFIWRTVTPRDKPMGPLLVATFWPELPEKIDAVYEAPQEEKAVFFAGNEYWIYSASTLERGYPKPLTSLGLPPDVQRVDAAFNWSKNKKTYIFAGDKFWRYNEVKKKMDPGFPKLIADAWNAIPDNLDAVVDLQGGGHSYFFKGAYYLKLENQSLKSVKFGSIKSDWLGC

B1: Lysyl oxidase propeptide (LOX-PP) (Pro24Leu) (domain or fragment, human, UniProt P28300 22-168, looked up)
chain: APLAAGQQQPPREPPAAPGAWRQQIQWENNGQVFSLLSLGSQYQPQRRRDPGAAVPGAANASAQQPRTPILLIRDNRTAAARTRTAGSSGVTAGRPRPTARHWFQAGYSTSRAREAGASRAENQTAPGEVPALSNLRPPSRVDGMVG
modifications: N-linked glycans (removed by PNGase F)
notes: propeptide of human lysyl oxidase, UniProtKB P28300, residues 22-168; expressed from the pCEP-Pu-BM40 vector; also called propeptide of human lysyl oxidase; source: HEK293-EBNA, purified (anti-FLAG resin)

Key:
Assay in all cases: SPR; SPR imaging (SPRi, Biacore Flexchip): partners spotted in triplicate on a bare gold chip at 0.06 to 1 mg/ml; purified LOX-PP injected at 2 µM and recirculated for 20 min; PBS with 0.05% Tween 20, 25 °C
Conditions in all cases: both partners purified
[1] = target: B1
[2] = target: T1, Collagen VI (vWF1 domain)
[3] = target: T2, Dermatopontin
[4] = target: T3, Transglutaminase-2 (TG-2), mutant …
[5] = target: T4, Fibromodulin
[6] = target: T5, Lysyl oxidase homolog 2 (LOXL2)
[7] = target: T6, Matrix metalloproteinase-2 (MMP-2)

Binder	binding result [1]	binding result [2]	binding result [3]	binding result [4]	binding result [5]	binding result [6]	binding result [7]
Fibronectin fragment III1-C (anastellin) (domain or fragment, anastellin, fragment III1-C of fibronectin, UniProtKB P02751, residues 631-702; source: bought: Sigma-Aldrich, F3542) not shown	binds						
B1		binds	binds	binds	binds	binds	binds
Epidermal growth factor (EGF) (ligand, UniProt P01133 971-1023, looked up, epidermal growth factor, feature PRO_0000007541 of pro-epidermal growth factor, UniProtKB P01133; source: bought: Sigma-Aldrich, E9644) NSDSECPLSHDGYCLHDGVCMYIEALDKYACNCVVGYIGERCQYRDLKWWELR	binds						
